PMC8670446 (2021)

Target: Ssa1 (S. cerevisiae, UniProt P10591 1-642)
Assay: BLI; apparent KD from equilibrium levels; His6-SUMO-Ssa1 immobilized

Ssa1, sequence (P10591 whole entry): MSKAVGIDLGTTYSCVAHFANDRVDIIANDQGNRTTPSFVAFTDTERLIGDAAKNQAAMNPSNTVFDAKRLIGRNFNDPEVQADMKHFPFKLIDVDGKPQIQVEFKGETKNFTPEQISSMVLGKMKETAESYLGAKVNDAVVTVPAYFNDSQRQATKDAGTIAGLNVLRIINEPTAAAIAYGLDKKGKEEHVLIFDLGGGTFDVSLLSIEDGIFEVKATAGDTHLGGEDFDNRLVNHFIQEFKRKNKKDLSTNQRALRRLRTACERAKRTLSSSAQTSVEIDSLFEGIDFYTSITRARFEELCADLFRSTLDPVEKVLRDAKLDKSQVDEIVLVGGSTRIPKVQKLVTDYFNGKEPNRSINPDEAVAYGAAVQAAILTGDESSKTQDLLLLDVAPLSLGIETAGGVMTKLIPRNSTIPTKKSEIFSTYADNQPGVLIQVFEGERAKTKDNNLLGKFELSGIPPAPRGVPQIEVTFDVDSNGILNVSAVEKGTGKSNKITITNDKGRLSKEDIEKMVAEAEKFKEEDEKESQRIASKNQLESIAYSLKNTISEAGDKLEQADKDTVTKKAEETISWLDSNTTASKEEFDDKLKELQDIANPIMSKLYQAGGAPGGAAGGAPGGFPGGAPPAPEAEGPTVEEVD

B1: Sis1 (natural protein)
chain: MVKETKLYDLLGVSPSANEQELKKGYRKAALKYHPDKPTGDTEKFKEISEAFEILNDPQKREIYDQYGLEAARSGGPSFGPGGPGGAGGAGGFPGGAGGFSGGHAFSNEDAFNIFSQFFGGSSPFGGADDSGFSFSSYPSGGGAGMGGMPGGMGGMHGGMGGMPGGFRSASSSPTYPEEETVQVNLPVSLEDLFVGKKKSFKIGRKGPHGASEKTQIDIQLKPGWKAGTKITYKNQGDYNPQTGRRKTLQFVIQEKSHPNFKRDGDDLIYTLPLSFKESLLGFSKTIQTIDGRTLPLSRVQPVQPSQTSTYPGQGMPTPKNPSQRGNLIVKYKVDYPISLNDAQKRAIDENF
  Kd: 210 nM
